Results reported in publication PMC4505822.

Biological target: insertion mutant recombinant human prion protein with five additional octapeptide repeats (human) (UniProt P04156)
Experiment: AFM height measurement with a calibration curve of marker proteins

Substance: insertion mutant recombinant human prion protein with five additional octapeptide repeats (from UniProt P04156 23-231) (natural protein)
- stoichiometry N: 11 to 22 monomers
